In patent publication EP4647441A1 (dated 2025):

T1: KRAS G12S peptide on HLA-A*11:01 (human)
T1 peptide: VVVGASGVGK

T2: KRAS G12A peptide on HLA-A*11:01 (human)
T2 peptide: VVVGAAGVGK

T3: KRAS G12C peptide on HLA-A*11:01 (human)
T3 peptide: VVVGACGVGK

T4: KRAS G12V peptide on HLA-A*11:01 (human)
T4 peptide: VVVGAVGVGK

T5: KRAS G12D peptide on HLA-A*11:01 (human)
T5 peptide: VVVGADGVGK

B1: TCR1 (TCR, V domains shown)
Valpha: KQEVTQIPAALSVPEGENLVLNCSFTDSAIYNLQWFRQDPGKGLTSLLLIQSSQREQTSGRLNASLDKSSGRSTLYIAASQPGDSATYLCAVNSYSGAGSYQLTFGKGTKLSVIP
Vbeta: EPEVTQTPSHQVTQMGQEVILRCVPISNHLYFYWYRQILGQKVEFLVSFYNNEISEKSEIFDDQFSVERPDGSNFTLKIRSTKLEDSAMYFCASRGGGEQYFGPGTRLTVT
B2: HLA-A*11:01/KRAS G12V-specific TCR1 (TCR)
TCR alpha: KQEVTQIPAALSVPEGENLVLNCSFTDSAIYNLQWFRQDPGKGLTSLLLIQSSQREQTSGRLNASLDKSSGRSTLYIAASQPGDSATYLCAVNSYSGAGSYQLTFGKGTKLSVIPNIQNPDPAVYQLRDSKSSDKSVCLFTDFDSQTNVSQSKDSDVYITDKTVLDMRSMDFKSNSAVAWSNKSDFACANAFNNSIIPEDTFFPSPESSCDVKLVEKSFETDTNLNFQNLSVIGFRILLLKVAGFNLLMTLRLWSS
TCR beta: EPEVTQTPSHQVTQMGQEVILRCVPISNHLYFYWYRQILGQKVEFLVSFYNNEISEKSEIFDDQFSVERPDGSNFTLKIRSTKLEDSAMYFCASRGGGEQYFGPGTRLTVTEDLKNVFPPEVAVFEPSEAEISHTQKATLVCLATGFYPDHVELSWWVNGKEVHSGVSTDPQPLKEQPALNDSRYCLSSRLRVSATFWQNPRNHFRCQVQFYGLSENDEWTQDRAKPVTQIVSAEAWGRADCGFTSESYQQGVLSATILYEILLGKATLYAVLVSALVLMAMVKRKDSRG

Legend:
[1] = target: T1, KRAS G12S peptide on HLA-A*11:01; assay: killing
[2] = target: T2, KRAS G12A peptide on HLA-A*11:01; assay: killing
[3] = target: T3, KRAS G12C peptide on HLA-A*11:01; assay: killing
[4] = target: T4, KRAS G12V peptide on HLA-A*11:01; assay: CD69 by flow cytometry; TCR1-transduced Jurkat cells with K562-A*11:01 loaded with peptide at 10^-11 to 10^-6 M; full-length, on cells
[5] = target: T5, KRAS G12D peptide on HLA-A*11:01; assay: as above
[6] = target: HLA-A*11:01 loaded with KRAS-G12D peptide … (human); assay: cell-based or functional assay
[7] = target: HLA-A*11:01 loaded with KRAS-G12V peptide … (human); assay: cell-based or functional assay

Row | Binder | binding result [1] | binding result [2] | binding result [3] | EC50 of peptide [4] | EC50 of peptide [5] | EC50 of CD69 expression of TCR-transduced cells after co-incubation with target cells loaded with graded peptide concentrations [6] | EC50 of CD69 expression of TCR-transduced cells after co-incubation with target cells loaded with graded peptide concentrations [7]
1 | B1 | recognises | recognises | recognises | ~45 nM | ~77 nM | – | –
2 | B2 | – | – | – | – | – | 77 nM | 45 nM
